Experimental data reported in patent US11286293.
Where “and” joins values, the source holds several entries; their conditions need not be identical. Equal entries are not always repeated. Where two headings read alike, the source gives them in different places.

Key:
Test in all cases: SPR
[1] = target: T1, Tissue factor (TF) extracellular domain (human, UniProt P13726)
T1 chain: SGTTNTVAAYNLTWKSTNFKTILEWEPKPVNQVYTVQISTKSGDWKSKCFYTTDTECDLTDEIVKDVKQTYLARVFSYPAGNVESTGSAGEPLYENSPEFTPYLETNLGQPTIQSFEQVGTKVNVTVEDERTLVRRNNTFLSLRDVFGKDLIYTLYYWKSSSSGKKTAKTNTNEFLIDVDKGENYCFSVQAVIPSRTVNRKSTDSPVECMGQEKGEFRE

[2] = target: T1, Tissue factor (TF) extracellular domain
[3] = target: T1, Tissue factor (TF) extracellular domain
[4] = target: T1, Tissue factor (TF) extracellular domain

B1: D3H44 WT Fab (antibody)
chain 1: EVQLVESGGGLVQPGGSLRLSCAASGFNIKEYYMHWVRQAPGKGLEWVGLIDPEQGNTIYDPKFQDRATISADNSKNTAYLQMNSLRAEDTAVYYCAR
chain 2: DIQMTQSPSSLSASVGDRVTITCRASRDIKSYLNWYQQKPGKAPKVLIYYATSLAEGVPSRFSGSGSGTDYTLTISSLQPEDFATYYCLQHG
B1 was tested, and the Kd [1] was 0.056 nM, the Kd [2] was 0.0522 nM and 0.0622 nM and the Kd [3] was 0.052 nM. The Kd [4] was 0.06 nM.
